Entries after “also recorded” stand apart in the source; their conditions may differ.
Experiments:
BT474 breast tumor cells = experiment: cell cycle analysis by propidium iodide flow cytometry; assay type: cell-based; conditions: 72 hours treatment
Description: After the end of treatment, cells are trypsinized, gently resuspended in hypotonic solution containing propidium iodide and single cells are analyzed by flow cytometry. Cell cycle distribution in G1 and S phases is measured using curve-fitting algorithms designed for cell cycle analysis (FlowJo software cell cycle platform).
After the end of treatment, cells are trypsinized, gently resuspended in hypotonic solution containing propidium iodide and single cells are analyzed by flow cytometry. Cell cycle distribution in G1 and S phases is measured using curve-fitting algorithms designed for cell cycle analysis (FlowJo software cell cycle platform, Tree Star, Inc.). […] In a second experiment, the number of cell colonies formed following treatment with B2B3-1 is studied. […] Media only or media including treatment is replenished every 3 days. After 14 days the number of colonies is counted and compared to untreated cells.

ADRr-E2 xenografts = experiment: ADRr-E2 (ErbB2 over-expressing) xenograft model; assay type: in vivo, nude mice; conditions: ADRr-E2, 30 mg/kg every 3 days
Text: ErbB2 is over-expressed in ADRr breast cancer cells using a retroviral expression system. Transfected cells expressing high levels of ErbB2 (ADRr-E2) are selected using FACS and subsequently injected subcutaneously into nude mice to establish xenograft tumors.

[1] = system: BT-474-M3 xenograft tumors; experiment: q7d versus q3d dosing in BT-474-M3 xenografts; assay type: in vivo, athymic nude mice (nu/nu); conditions: intraperitoneal
Description: Mice receive a subcutaneous estrogen-releasing implant in the opposite flank (0.72 mg pellet, 60 day, slow-release, Innovative Research of America, Sarasota, Fla.) 24 h prior to the injection of 20×10^6 human BT-474-M3cells in PBS. […] Tumors are measured twice a week using digital calipers. Tumor volume is calculated using the formula: π/6×(W^2×L), where W is the short diameter and L is the long diameter. […] PBS vehicle is used as a negative control.

[2] = pharmacokinetics in Cynomolgus monkeys (dose range-finding toxicology study); assay type: in vivo, Cynomolgus monkey
Description: Blood samples for pharmacokinetic analysis are also obtained from a dose range-finding toxicology study in female Cynomolgus monkeys. […] Sampling occurred prior to and 5 minutes after dosing on each dosing day (study days 1, 4, 7 and 10) to provide pre-dose and peak/trough concentrations, and at 1, 2, 4, 8, 24 and 48 hours after the end of the first infusion on day 1 and at 1, 2, 4, 8, 24, 48, 72 and 120 hours after the last infusion on day 10. For recovery animals dosed at 200 mg/kg serum samples are also collected at 168, 336 and 456 hours after the last infusion.
Cynomolgus monkey serum samples are assayed using the ErbB2/ErbB3 ELISA method described previously.

[3] = system: AKT phosphorylation in ZR75-30 cells; experiment: HRG-induced AKT phosphorylation ELISA in ZR75-30; assay type: cell-based, human; conditions: ZR75-30, dose titration 24 hours, 5 nM HRG 1β EGF domain 10 minutes
[4] = system: phosphorylated ErbB3 in BT-474-M3 xenograft tumors; experiment: pErbB3 Western blot of xenograft tumors; assay type: in vivo; conditions: 30 mg/kg every 3 days, 4 doses, harvested 24 hours after final dose
Text: Equal quantities of protein are loaded in each lane and total protein levels are controlled by probing for beta tubulin.

[5] = system: ErbB3 phosphorylation in 9 tumor cell lines; experiment: pErbB3 inhibition ELISA across 9 tumor cell lines versus ErbB2 expression; assay type: cell-based; conditions: 5×10^4 to 2.4×10^6 ErbB2 receptors/cell
[6] = system: AKT phosphorylation in BT-474-M3 cells; experiment: HRG-induced AKT phosphorylation ELISA in BT-474-M3; assay type: cell-based, human; conditions: BT-474-M3, dose titration 24 hours, 5 nM HRG 1β EGF domain 10 minutes
[7] = system: CD31 in BT474-M3 breast cancer xenograft tumors; experiment: CD31 staining (vessel density) of xenograft tumors; assay type: in vivo; conditions: 30 mg/kg every 3 days, 4 doses
Text: Tumors are stained for the presence of vascular marker CD31.

[8] = system: ErbB3 phosphorylation in ZR75-30 cells; experiment: HRG-induced ErbB3 phosphorylation ELISA in ZR75-30; assay type: cell-based, human; conditions: ZR75-30, dose titration 24 hours, 5 nM HRG 1β EGF domain 10 minutes
Description: Except as noted, ELISA reagents for total and phospho-ErbB3 ELISAs are purchased from R&D Systems as DUOSET kits. 96-well NUNC MAXISORB plates are coated with 50 μl of an antibody and incubated overnight at room temperature. Next morning, plates are washed 3 times with 1000 μl/well in a BIOTEK plate washer with Dulbecco's phosphate buffered saline without calcium or magnesium (PBS) with added Tween detergent (PBST) (0.05% Tween-20). […] The plates are washed 3 times with 1000 μl/well in the BIOTEK plate washer with PBST. Cells are grown at 37° C. and 5% carbon dioxide, washed with cold PBS, then harvested with mammalian protein extract (MPER) lysis buffer (Pierce, 78505) to which 150 mM NaCl, 5 mM sodium pyrophosphate, 10 uM bpV (phen), 50uM phenylarsine, 1 mM sodium orthovanadate, and protease inhibitor cocktail (Sigma, P2714) is added. 50 μL of cell lysates and standards diluted in 50% Lysis buffer and 1% BSA are used in duplicates for further processing. Samples are incubated for 2hrs at 4° C. on a plate shaker and washed as before. About 50 μl of a detection antibody diluted in 2% BSA, PBST is added and incubated for about 1-2 hrs at room temperature. […] About 50 μL of SUPERSIGNAL ELISA Pico (Thermo Scientific) substrate is added and the plate is read using a FUSION plate reader. […]

[9] = Cynomolgus monkey (1st dose), 4 mg/kg
[10] = Cynomolgus monkey (1st dose), 20 mg/kg
[11] = Cynomolgus monkey (1st dose), 200 mg/kg
[12] = Cynomolgus monkey (4th dose), 4 mg/kg
[13] = Cynomolgus monkey (4th dose), 20 mg/kg
[14] = Cynomolgus monkey (4th dose), 200 mg/kg
[15] = Cynomolgus monkey (4th dose), 200 mg/kg, recovery animals

## B2B3-1: bispecific scFv antibody fusion: anti-ErbB3 scFv H3 and anti-ErbB2 scFv B1D2 joined by a modified human serum albumin (HSA) linker
BT474 breast tumor cells
  population of cells in G1 phase: increase; also recorded: G1 arrest
  population of cells in S phase: modestly decrease
ADRr-E2 xenografts
  xenograft response: responded; also recorded: responder
[1]
  efficacy of q7d dosing (66, 132, 198 mg/kg) versus 30 mg/kg q3d: equivalent efficacy
[2]; [9]
  AUC: 3.44E+03 hr-μg/ml
  Clearance: 1.17 mL/h/kg
  T½β: 39.1 h
[2]; [10]
  AUC: 2.29E+04 hr-μg/ml
  Clearance: 0.88 mL/h/kg
  T½β: 33.1 h
[2]; [11]
  AUC: 3.18E+05 hr-μg/ml
  Clearance: 0.64 mL/h/kg
  T½β: 68.8 h
[2]; [12]
  AUC: 7.20E+03 hr-μg/ml
  Clearance: 0.60 mL/h/kg
  T½β: 44.9 h
[2]; [13]
  AUC: 8.20E+04 hr-μg/ml
  Clearance: 0.25 mL/h/kg
  T½β: 122.5 h
[2]; [14]
  AUC: 5.72E+05 hr-μg/ml
  Clearance: 0.35 mL/h/kg
  T½β: 69.7 h
[2]; [15]
  AUC: 5.99E+05 hr-μg/ml
  Clearance: 0.34 mL/h/kg
  T½β: 66.6 h
[2]; Cynomolgus monkey, day 1, 4, 20 or 200 mg/kg
  Mean half-life estimates: 38.3 to 67.2 h
[3]
  inhibition of HRG induced AKT phosphorylation: inhibits
[4]
  pErbB3 in tumors compared to HSA treated tumors: significantly less pErbB3
[5]
  % pErbB3 inhibition in relation to ErbB2 expression levels: correlates positively
[6]
  inhibition of HRG induced AKT phosphorylation: inhibits
[7]
  vessel density (CD31) compared to HSA treated tumors: marked decrease in vessel density; also recorded: reduction of vessel density
[8]
  inhibition of HRG induced ErbB3 phosphorylation: inhibits
